# Reference: publication PMC8423723, “Regulation of cadherin dimerization by chemical fragments as a trigger to inhibit cell adhesion” (Communications Biology, 2021)
# Assays:
# [1] = molecular target: C-terminally His-tagged P-cadherin MEC12 (X dimer), on liposomes (human)
# [2] = molecular target: P-cadherin MEC12 (X dimer) K14A; experiment: SEC-MALS; conditions: N = 1; parent: est. 33; read off a plot
# [3] = molecular target: T1, REC12 (P-cadherin monomer mutant) (Homo sapiens, UniProt P22223, INS0R); experiment: SPR, Scatchard analysis of equilibrium responses; format: binding
# T1 construct: gene CDH3; EC12 (EC1-EC2, residues 1-241) with Arg inserted at N terminus; biotinylated for chip capture; E. coli Rosetta2(DE3), SUMO tag cut with Ulp1; monomer
# [4] = molecular target: T2, EC12 (P-cadherin) (Homo sapiens, UniProt P22223); experiment: SPR ABA assay, disruption of EC12 dimer on chip; format: binding; conditions: 100 µM compound, 2 µM EC12 in solution A
# T2 construct: gene CDH3; EC1-EC2, residues 1-241, wild type; E. coli, SUMO cut; amine-coupled to CM5 chip
# [5] = molecular target: T3, REC12 (P-cadherin monomer mutant) (Homo sapiens, UniProt P22223); conditions: pH 7.5, 25 °C, 3 mM CaCl2, 5% DMSO; construct printed only as P-cadherin
# T3 construct: gene CDH3
# T3 sequence (P22223 107-348, change not shown): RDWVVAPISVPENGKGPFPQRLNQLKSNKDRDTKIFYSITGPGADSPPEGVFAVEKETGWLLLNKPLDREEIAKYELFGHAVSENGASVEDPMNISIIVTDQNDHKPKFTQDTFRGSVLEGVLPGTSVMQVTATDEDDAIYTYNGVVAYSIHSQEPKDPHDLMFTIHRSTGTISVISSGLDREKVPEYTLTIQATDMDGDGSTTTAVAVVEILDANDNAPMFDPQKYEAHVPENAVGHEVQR
# T2 sequence (P22223 108-348): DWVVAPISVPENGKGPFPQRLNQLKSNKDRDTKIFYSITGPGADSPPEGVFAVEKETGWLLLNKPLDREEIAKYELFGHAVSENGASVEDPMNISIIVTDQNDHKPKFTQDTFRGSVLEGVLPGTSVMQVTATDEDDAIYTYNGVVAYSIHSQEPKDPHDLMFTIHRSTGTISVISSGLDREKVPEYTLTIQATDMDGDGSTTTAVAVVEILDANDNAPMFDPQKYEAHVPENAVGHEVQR
# T1 sequence (P22223 107-348, stated change not applied): as the sequence (P22223 107-348, change not shown) above
compound,measurement,setting,value
"C-terminally His-tagged P-cadherin MEC12 (X dimer), on liposomes (domain or fragment)","kobs of liposome aggregation (optical density at 650 nm after addition of CaCl2, one-phase association), in the absence of Hit 1; no aggregation with EDTA or without MEC12",[1],0.0086
same,"kobs of liposome aggregation (optical density at 650 nm after addition of CaCl2, one-phase association), in the presence of Hit 1",[1],0.0033
P-cadherin MEC12 (X dimer) as used in SEC-MALS and HDX-MS K14A,other: molecular weight (SEC-MALS),[2],24 kDa
Cc1[nH]c2ccc(Cl)cc2c1CCN [Hit 1],Kd,[3],~916 µM
same,"SPR ABA assay, disruption of EC12 dimer on chip",[4],These compounds bound to and disrupted the dimerization
NCCc1c[nH]c2ccccc12 [tryptamine],SPR direct binding,[5],only tryptamine bound to P-cadherin
